In publication doi:10.1101/2021.02.16.431021 (bioRxiv, 2021):

Target: the molecule itself
Experiment: crystal structure

B1: SARS-CoV main protease (M^pro) (enzyme)
chain: SGFRKMAFPSGKVEGCMVQVTCGTTTLNGLWLDDTVYCPRHVICTAEDMLNPNYEDLLIRKSNHSFLVQAGNVQLRVIGHSMQNCLLRLKVDTSNPKTPKYKFVRIQPGQTFSVLACYNGSPSGVYQCAMRPNHTIKGSFLNGSCGSVGFNIDYDCVSFCYMHHMELPTGVHAGTDLEGKFYGPFVDRQTAQAAGTDTTITLNVLAWLYAAVINGDRWFLNRFTTTLNDFNLVAMKYNYEPLTQDHVDILGPLSAQTGIAVLDMCAALKELLQNGMNGRTILGSTILEDEFTPFDVVRQCSGVTFQ
  binding result: binds
